Ends that are not written are not given here. GST = glutathione-S-transferase
Molecular target: T1, VEGFR-3/EpoR chimera expressed on BaF3 cells (UniProt P14753+P35916)
T1 construct: expressed in transfected cells; host or cells: BaF3 (IL-3 dependent murine pro-B cells)
T1 sequence (P35916+P14753 with tags, fused parts or gaps): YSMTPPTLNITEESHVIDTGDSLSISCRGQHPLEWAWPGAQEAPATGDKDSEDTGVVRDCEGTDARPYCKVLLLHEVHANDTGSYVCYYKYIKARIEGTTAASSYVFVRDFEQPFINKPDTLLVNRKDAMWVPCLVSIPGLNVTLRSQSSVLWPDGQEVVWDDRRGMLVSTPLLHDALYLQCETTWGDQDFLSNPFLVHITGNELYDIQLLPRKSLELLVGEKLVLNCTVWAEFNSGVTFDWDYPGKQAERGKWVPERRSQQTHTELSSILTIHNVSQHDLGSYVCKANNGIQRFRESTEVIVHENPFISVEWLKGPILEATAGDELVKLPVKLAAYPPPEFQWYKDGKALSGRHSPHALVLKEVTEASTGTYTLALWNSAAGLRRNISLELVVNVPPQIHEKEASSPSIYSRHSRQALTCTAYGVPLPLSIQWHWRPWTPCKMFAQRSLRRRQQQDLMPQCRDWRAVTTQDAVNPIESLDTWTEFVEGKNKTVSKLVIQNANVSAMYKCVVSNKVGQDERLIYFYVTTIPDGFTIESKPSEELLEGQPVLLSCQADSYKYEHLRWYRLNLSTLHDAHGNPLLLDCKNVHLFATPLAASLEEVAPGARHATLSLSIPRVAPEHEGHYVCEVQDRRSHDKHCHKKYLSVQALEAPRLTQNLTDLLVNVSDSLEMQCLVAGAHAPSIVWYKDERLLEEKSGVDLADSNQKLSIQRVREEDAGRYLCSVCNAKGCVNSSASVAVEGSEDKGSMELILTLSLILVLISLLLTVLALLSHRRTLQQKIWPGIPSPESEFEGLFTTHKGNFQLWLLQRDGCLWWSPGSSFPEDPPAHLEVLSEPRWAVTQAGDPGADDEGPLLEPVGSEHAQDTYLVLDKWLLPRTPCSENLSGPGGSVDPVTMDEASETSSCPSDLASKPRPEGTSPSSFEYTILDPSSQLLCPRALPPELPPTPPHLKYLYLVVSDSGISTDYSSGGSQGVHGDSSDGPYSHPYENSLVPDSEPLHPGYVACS
Assay: Bioassay for VEGFR-3 stimulation: viability (MTT) of BaF3 cells expressing a VEGFR-3/EpoR chimera, supplied with VEGF-C
Assay type: cell-based
Method: For the viability assay, the IL-3 dependent BaF3 cells expressing a VEGFR-3/EpoR chimera (Aschen et al, Eur J Biochem. 267(9):2505-15, 2000) were seeded in 96 well microtiter plates at 15000 cells/well in triplicates in the absence of IL-3 but supplied with the lOOng/ml VEGF-C and a range of concentrations of the selected peptides fused with GST. Cells were cultured for 48 h, during which time the cells incubated in cell culture medium alone had died. The viability of the cells was determined by the MTT reagent, which was added at a concentration of 0.5 mg/ml. After 2 h an equal volume of cell lysis solution was added (10%SDS/10 mM HCl) and allowed to incubate overnight at 37° C. The absorbance was measured at 540 nm.
The effects of the peptides fused to GST on the growth of BaF3-R3/EpoR were assessed using the MTT assay as described above and are depicted in FIG. 1. In this experiment, GST- CGYWLTIWGC (SEQ ID NO: 35) fusion protein was used for the inhibition of VEGF-C binding to VEGFR-3 expressed on BaF3 cells. In this experiment, a 20 uM concentration of the fusion protein sufficed to inhibit the binding completely as measured by the MTT cell death assay.

| Substance | concentration that sufficed to inhibit VEGF-C binding to VEGFR-3 completely, as measured by the MTT cell death assay (GST fusion protein, BaF3-R3/EpoR cells, no IL-3, VEGF-C supplied, 48 h) [µM] | concentration sufficient to completely inhibit VEGF-C/D binding to VEGFR-3 expressed on BaF3 cells (GST fusion protein, BaF3 cells) [µM] | competition with VEGF-C binding to VEGFR-3 expressed on BaF3 cells (in words) (BaF3 cells expressing VEGFR-3) |
| --- | --- | --- | --- |
| GST-CGYWLTIWGC: fusion protein of glutathione-S-transferase (GST) with peptide CGYWLTIWGC, produced in E. coli from pGEX-2T ({GST}-CGYWLTIWGC; cysteine pairing not given here; also: GST fusion, dimerising) | 20 | 20 |  |
| CGYWLTIWGC (isolated peptide) |  |  | competes with VEGF-C binding to VEGFR-3 |
